Data on 4 molecules can be found in patent publication US20120238493A1 (INDIANA UNIVERSITY RESEARCH AND TECHNOLOGY, published 2012).

Holding throughout (assay): cell-based or functional assay
Experiment [1] concerns the target T1, GIP receptor (UniProt P48546 22-466, limits assumed).
T1 sequence (looked up): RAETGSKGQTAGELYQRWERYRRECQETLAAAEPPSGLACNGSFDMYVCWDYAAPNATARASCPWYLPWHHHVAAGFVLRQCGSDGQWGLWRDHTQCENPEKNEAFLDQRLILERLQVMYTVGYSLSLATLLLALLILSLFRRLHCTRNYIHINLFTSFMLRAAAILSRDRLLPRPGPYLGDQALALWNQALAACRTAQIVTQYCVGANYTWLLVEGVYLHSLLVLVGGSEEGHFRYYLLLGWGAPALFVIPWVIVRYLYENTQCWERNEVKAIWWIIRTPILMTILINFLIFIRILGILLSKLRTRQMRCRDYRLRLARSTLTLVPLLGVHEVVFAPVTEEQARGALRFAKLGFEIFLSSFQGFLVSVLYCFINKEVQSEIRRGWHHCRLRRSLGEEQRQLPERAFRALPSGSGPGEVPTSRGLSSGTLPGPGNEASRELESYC

For experiment [2], the target named is T1, GIP receptor. This is another data set of the same source.
For experiment [3], the target named is T2, GLP-1 receptor (UniProt P43220 24-463, limits assumed).
In experiment [4] the target is T1, GIP receptor. This is another data set of the same source.
In experiment [5] the target is T3, glucagon receptor (UniProt P47871 26-477, limits assumed).
Experiment [6] addresses T2, GLP-1 receptor. The source holds these as a separate data set.
For experiment [7], the target named is T1, GIP receptor. This is another data set of the same source.
Experiment [8] addresses T3, glucagon receptor. This is another data set of the same source.
Experiment [9] deals with T2, GLP-1 receptor. The source holds these as a separate data set.
In experiment [10] the target is T1, GIP receptor. The source holds these as a separate data set.
For experiment [11], the target named is T3, glucagon receptor. The source holds these as a separate data set.
Experiment [12] has as its target T2, GLP-1 receptor. The source holds these as a separate data set.
Experiment [13] concerns the target T1, GIP receptor. This is another data set of the same source.
The target in experiment [14] is T3, glucagon receptor. The source holds these as a separate data set.
Experiment [15] addresses T2, GLP-1 receptor. The source holds these as a separate data set.
In experiment [16] the target is T1, GIP receptor. The source holds these as a separate data set.
In experiment [17] the target is T3, glucagon receptor. The source holds these as a separate data set.
Experiment [18] has as its target T2, GLP-1 receptor. This is another data set of the same source.
Experiment [19] has as its target T1, GIP receptor. The source holds these as a separate data set.
The target of experiment [20] is T3, glucagon receptor. This is another data set of the same source.
Experiment [21] concerns the target T2, GLP-1 receptor. The source holds these as a separate data set.
Target sequence in this assay (P43220 24-463 limits assumed): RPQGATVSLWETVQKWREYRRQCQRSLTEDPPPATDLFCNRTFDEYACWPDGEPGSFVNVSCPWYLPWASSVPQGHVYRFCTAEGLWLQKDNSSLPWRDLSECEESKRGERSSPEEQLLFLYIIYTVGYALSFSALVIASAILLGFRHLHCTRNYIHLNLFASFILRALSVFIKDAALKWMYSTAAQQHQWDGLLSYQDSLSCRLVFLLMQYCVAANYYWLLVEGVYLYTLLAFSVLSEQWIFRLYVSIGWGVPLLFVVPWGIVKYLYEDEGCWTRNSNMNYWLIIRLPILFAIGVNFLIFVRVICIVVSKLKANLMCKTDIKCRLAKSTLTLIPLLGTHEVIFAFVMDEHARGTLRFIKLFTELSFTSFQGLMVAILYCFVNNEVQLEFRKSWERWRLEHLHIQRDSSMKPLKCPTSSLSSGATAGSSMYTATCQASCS
Experiment [22] concerns the target T1, GIP receptor. This is another data set of the same source.
Experiment [23] addresses T3, glucagon receptor. The source holds these as a separate data set.

Read-outs that look alike come from different tables or passages of the source. *1 amine or outer side, *2 acyl side, *3 side chain or, on linkers, in order; H or OH if unused. Where no end group is shown, it is not given here. Side-chain parts run from the residue outwards. [ ]: non-standard residue; d: D form. The star is where a group is joined. γGlu = O=C(O)[C@H](CCC(=O)[*:2])N[*:1]; Palmitoyl = CCCCCCCCCCCCCCCC(=O)*; Aib = CC(C)(N)C(=O)O

T3 sequence (P47871 26-477 limits assumed): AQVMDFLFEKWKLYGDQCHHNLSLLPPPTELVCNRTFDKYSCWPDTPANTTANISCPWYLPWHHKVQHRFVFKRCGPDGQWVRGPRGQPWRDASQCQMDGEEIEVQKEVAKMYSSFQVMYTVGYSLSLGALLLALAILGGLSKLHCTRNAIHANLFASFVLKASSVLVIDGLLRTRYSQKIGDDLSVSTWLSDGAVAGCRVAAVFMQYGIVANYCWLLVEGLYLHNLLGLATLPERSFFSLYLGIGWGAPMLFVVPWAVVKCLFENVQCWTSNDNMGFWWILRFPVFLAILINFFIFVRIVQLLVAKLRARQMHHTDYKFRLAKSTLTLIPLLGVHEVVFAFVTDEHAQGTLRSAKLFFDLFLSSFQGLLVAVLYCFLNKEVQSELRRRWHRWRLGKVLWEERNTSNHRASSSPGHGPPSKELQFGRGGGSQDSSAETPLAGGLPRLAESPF

Consider “Native GIP (SEQ ID NO: 2) (from UniProt P09681 52-93) (ligand)”, for which the values for the EC50 (cAMP reporter) with GIP receptor [1] and in the experiment with GIP receptor [2] were 10 pM and 6.5 pM, respectively.

As to H[Aib]QGTFTSDK([γGlu-Palmitoyl])SKYLDERAAQDFVQWLLDGGPSSGAPPPS-NH2 [Analog No. 30: Aib2, K10acyl, E16, A18, L27, D28, G29 + CEX (SEQ ID NO: 28)], the “EC50 (cAMP reporter)” value was 2 pM with GLP-1 receptor [3]; 3 pM in the experiment with GIP receptor [4]; 2 pM with glucagon receptor [5]; 2 pM in the experiment with GLP-1 receptor [6]; 2 pM in the experiment with GIP receptor [7]; 2 pM with glucagon receptor [8]. Further, the “EC50 (cAMP reporter)” value in the experiment with GLP-1 receptor [12] amounted to 4 pM; with GIP receptor [13] it was 4 pM; in the experiment with glucagon receptor [14] it was 3 pM; with GLP-1 receptor [15], 2 pM; in the experiment with GIP receptor [16], 3 pM; in the experiment with glucagon receptor [17], 2 pM. Besides, in the experiment with GLP-1 receptor [9], the “activity (cAMP reporter), column GLP” value is 0.002. The “activity (cAMP reporter), column GIP” value in the experiment with GIP receptor [10] amounted to 0.003. Besides, the “activity (cAMP reporter), column Glu” value in the experiment with glucagon receptor [11] stood at 0.002. In addition, the results for the “EC50 (cAMP, nmole)” value with GLP-1 receptor [18], with GIP receptor [19] and in the experiment with glucagon receptor [20] were 0.003 nmol, 0.007 nmol and 0.004 nmol, respectively.

With H[Aib]QGTFTSDYSKYLDERAAQDFVQWLLDGGPSSGAPPPSK([γGlu-γGlu-Palmitoyl])G-NH2 (not fully specified) [peptide of SEQ ID NO: 89], the “EC50 (cAMP reporter)” value with GLP-1 receptor [3] came to 2.1 pM; with GIP receptor [4], 24 pM; in the experiment with glucagon receptor [5], 4.1 pM; with GLP-1 receptor [6], 4 pM; with GIP receptor [7], 20 pM; with glucagon receptor [8] it was 4 pM. Besides, the “EC50 (cAMP reporter)” value is 5 pM with GLP-1 receptor [12], 28 pM with GIP receptor [13] and 6 pM with glucagon receptor [14].

B1: peptide of SEQ ID NO: 230 (peptide)
peptide: H[Aib]QGTFTSDYSIYLDEKRAKEFVCWLLAGGPSSGAPPPSK-NH2
modifications: N-terminus assumed
SMILES: CC[C@H](C)[C@H](NC(=O)[C@H](CO)NC(=O)[C@H](Cc1ccc(O)cc1)NC(=O)[C@H](CC(=O)O)NC(=O)[C@H](CO)NC(=O)[C@@H](NC(=O)[C@H](Cc1ccccc1)NC(=O)[C@@H](NC(=O)CNC(=O)[C@H](CCC(N)=O)NC(=O)C(C)(C)NC(=O)[C@@H](N)Cc1c[nH]cn1)[C@@H](C)O)[C@@H](C)O)C(=O)N[C@@H](Cc1ccc(O)cc1)C(=O)N[C@@H](CC(C)C)C(=O)N[C@@H](CC(=O)O)C(=O)N[C@@H](CCC(=O)O)C(=O)N[C@@H](CCCCN)C(=O)N[C@@H](CCCNC(=N)N)C(=O)N[C@@H](C)C(=O)N[C@@H](CCCCN)C(=O)N[C@@H](CCC(=O)O)C(=O)N[C@@H](Cc1ccccc1)C(=O)N[C@H](C(=O)N[C@@H](CS)C(=O)N[C@@H](Cc1c[nH]c2ccccc12)C(=O)N[C@@H](CC(C)C)C(=O)N[C@@H](CC(C)C)C(=O)N[C@@H](C)C(=O)NCC(=O)NCC(=O)N1CCC[C@H]1C(=O)N[C@@H](CO)C(=O)N[C@@H](CO)C(=O)NCC(=O)N[C@@H](C)C(=O)N1CCC[C@H]1C(=O)N1CCC[C@H]1C(=O)N1CCC[C@H]1C(=O)N[C@@H](CO)C(=O)N[C@@H](CCCCN)C(N)=O)C(C)C
Regarding B1, the figures for the “EC50 (cAMP reporter)” value with GLP-1 receptor [21], in the experiment with GIP receptor [22] and in the experiment with glucagon receptor [23] were 222 pM, 164 pM and 1640 pM, respectively.
